Data taken from the supplement of paper PMC9732359.
± gives the uncertainty stated by the source.

Assay: protein stability index of a GFP-peptide fusion (yeast GPS) (PSI 1-4); higher = more stable; sorted into four equal gates, so the index is relative within each strain
How it was run: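 Plasmids in a pooled yeast library fused tiled 17-residue yeast protein peptides downstream of GFP and also expressed Cherry. Mid-log cultures grown without leucine were sorted into four equal gates by GFP/Cherry fluorescence ratio. Each gate's plasmids were PCR-amplified and Illumina-sequenced, and reads were matched to strains by barcodes. The protein stability index is derived by multiplying each gate's read frequency by its gate number and summing the results.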

VSKKWAAAGVCEKWAAS [RPL14B]
protein stability index (doa10∆): 2.64 ± 0.077
protein stability index (pdr5∆): 3.1 ± 0.14
protein stability index (san1∆): 2.73 ± 0.084
protein stability index (ubr1∆): 2.51 ± 0.066

MKLNISYPVNGSQKTFE [RPS6A]
protein stability index (doa10∆): 2.65 ± 0.17
protein stability index (pdr5∆): 2.77 ± 0.12
protein stability index (san1∆): 2.79 ± 0.12
protein stability index (ubr1∆): 2.94 ± 0.13

VNDRSDISDSEGGLFEC [PCI8]
protein stability index (doa10∆): 3.38 ± 0.2
protein stability index (pdr5∆): 3.11 ± 0.12
protein stability index (san1∆): 3.45 ± 0.071
protein stability index (ubr1∆): 3.08 ± 0.11

TNKDIICQIISSTITGD [RPL5]
protein stability index (doa10∆): 2.6 ± 0.055
protein stability index (pdr5∆): 2.13 ± 0.057
protein stability index (san1∆): 2.94 ± 0.1
protein stability index (ubr1∆): 2.24 ± 0.055

DRELNEVINQMERLDGD [SMC3]
protein stability index (doa10∆): 3.13 ± 0.086
protein stability index (pdr5∆): 3.29 ± 0.083
protein stability index (san1∆): 3.2 ± 0.08
protein stability index (ubr1∆): 3.1 ± 0.045

DKLINDVTAIQTWSYLS [ECM29]
protein stability index (doa10∆): 1.77 ± 0.04
protein stability index (pdr5∆): 1.78 ± 0.04
protein stability index (san1∆): 1.74 ± 0.087
protein stability index (ubr1∆): 1.83 ± 0.044

AELNLPTVDEQRQYKVQ [SNF11]
protein stability index (doa10∆): 3.22 ± 0.081
protein stability index (pdr5∆): 3.3 ± 0.08
protein stability index (san1∆): 3.12 ± 0.092
protein stability index (ubr1∆): 3.31 ± 0.067

ASELDESKDSIQDLIVK [SMC3]
protein stability index (doa10∆): 3.3 ± 0.085
protein stability index (pdr5∆): 3.04 ± 0.12
protein stability index (san1∆): 3.18 ± 0.13
protein stability index (ubr1∆): 3.33 ± 0.14

AEHSQNKIDQSLQYIER [YJL041W/NSP1]
protein stability index (doa10∆): 3.17 ± 0.069
protein stability index (pdr5∆): 3.16 ± 0.043
protein stability index (san1∆): 3.21 ± 0.049
protein stability index (ubr1∆): 3.04 ± 0.048

HDFLFNTIIRDGSKMLK [RPN14]
protein stability index (doa10∆): 2.05 ± 0.11
protein stability index (pdr5∆): 2.55 ± 0.095
protein stability index (san1∆): 3.03 ± 0.15
protein stability index (ubr1∆): 1.38 ± 0.068

VFSALKNLISRINTLPQ [ECM29]
protein stability index (doa10∆): 3.06 ± 0.12
protein stability index (pdr5∆): 2.36 ± 0.091
protein stability index (san1∆): 1.76 ± 0.22
protein stability index (ubr1∆): 2.71 ± 0.051

NINSTDKSIDTSSLQLY [YML103C/NUP188]
protein stability index (doa10∆): 2.98 ± 0.099
protein stability index (pdr5∆): 2.67 ± 0.14
protein stability index (san1∆): 3.11 ± 0.049
protein stability index (ubr1∆): 3.25 ± 0.07

MNNQPQGTNSVPNSIGN [SNF5]
protein stability index (doa10∆): 2.87 ± 0.074
protein stability index (pdr5∆): 3.1 ± 0.096
protein stability index (san1∆): 3.04 ± 0.12
protein stability index (ubr1∆): 2.92 ± 0.055

SKTGSVDTLHNKEGTLE [SSN2]
protein stability index (doa10∆): 3.46 ± 0.24
protein stability index (pdr5∆): 3.14 ± 0.16
protein stability index (san1∆): 3.19 ± 0.083
protein stability index (ubr1∆): 3.4 ± 0.14

YVAIVVDPLKSLEDKIL [RRI1]
protein stability index (doa10∆): 1.12 ± 0.069
protein stability index (pdr5∆): 1.38 ± 0.07
protein stability index (ubr1∆): 1.68 ± 0.081

GKPVSLPLLYNFNPDNG [FAS1]
protein stability index (doa10∆): 2.93 ± 0.095
protein stability index (pdr5∆): 3.27 ± 0.1
protein stability index (san1∆): 2.62 ± 0.075
protein stability index (ubr1∆): 2.92 ± 0.076

PNIMLIFGSGFGSADDT [FAS1]
protein stability index (doa10∆): 3.07 ± 0.07
protein stability index (pdr5∆): 2.92 ± 0.073
protein stability index (san1∆): 3.12 ± 0.067
protein stability index (ubr1∆): 2.24 ± 0.065

LNTLNNVVEIWVFSYLR [SIR3]
protein stability index (doa10∆): 1.56 ± 0.043
protein stability index (pdr5∆): 1.6 ± 0.063
protein stability index (san1∆): 1.42 ± 0.11
protein stability index (ubr1∆): 1.58 ± 0.053

EEAKSVLPAATKKKSKF [ARP9]
protein stability index (doa10∆): 2.1 ± 0.062
protein stability index (pdr5∆): 2.25 ± 0.043
protein stability index (san1∆): 2.04 ± 0.06
protein stability index (ubr1∆): 2.31 ± 0.036

FLKHNGEEDAVDLLLEI [RPN1]
protein stability index (doa10∆): 3.23 ± 0.082
protein stability index (pdr5∆): 3.16 ± 0.12
protein stability index (san1∆): 3.24 ± 0.072
protein stability index (ubr1∆): 3.3 ± 0.05

SQTMAETYVASYVVPRL [ECM29]
protein stability index (doa10∆): 1.85 ± 0.042
protein stability index (pdr5∆): 1.82 ± 0.049
protein stability index (san1∆): 1.9 ± 0.069
protein stability index (ubr1∆): 2 ± 0.038

NSANGSSLNGTNAKIPQ [SSN3]
protein stability index (doa10∆): 2.38 ± 0.071
protein stability index (pdr5∆): 2.72 ± 0.071
protein stability index (san1∆): 2.53 ± 0.076
protein stability index (ubr1∆): 2.56 ± 0.057

IELIDYDKLPAGQNATV [RET1]
protein stability index (doa10∆): 2.41 ± 0.074
protein stability index (pdr5∆): 1.95 ± 0.079
protein stability index (san1∆): 1.67 ± 0.2
protein stability index (ubr1∆): 2.4 ± 0.068

KDSNKDVVVEGLRRARY [RPL10]
protein stability index (doa10∆): 3.26 ± 0.097
protein stability index (pdr5∆): 3.34 ± 0.071
protein stability index (san1∆): 3.38 ± 0.072
protein stability index (ubr1∆): 3.38 ± 0.058

SHTGLIRKYGLNICRQC [RPS29A]
protein stability index (doa10∆): 1.51 ± 0.047
protein stability index (pdr5∆): 1.58 ± 0.05
protein stability index (san1∆): 1.51 ± 0.093
protein stability index (ubr1∆): 1.89 ± 0.053

RLNPYAKVFAAEKLGSK [RPL4A]
protein stability index (doa10∆): 2.09 ± 0.14

RSTKDMIDAVFEQDSHL [SNF6]
protein stability index (doa10∆): 3.12 ± 0.068
protein stability index (pdr5∆): 3.34 ± 0.054
protein stability index (san1∆): 3.27 ± 0.053
protein stability index (ubr1∆): 3.14 ± 0.058

NLPKDKSGIPEFTPADP [SSN2]
protein stability index (doa10∆): 2.99 ± 0.091
protein stability index (pdr5∆): 3.12 ± 0.075
protein stability index (san1∆): 3.03 ± 0.076
protein stability index (ubr1∆): 3.47 ± 0.056

LQFHVATYMDNDIAGQP [RPO21]
protein stability index (doa10∆): 2.6 ± 0.07
protein stability index (pdr5∆): 2.53 ± 0.073
protein stability index (san1∆): 2.6 ± 0.053
protein stability index (ubr1∆): 2.66 ± 0.056

DVYASKVRLNASEREEL [PRP8]
protein stability index (doa10∆): 1.93 ± 0.062
protein stability index (pdr5∆): 2.22 ± 0.061
protein stability index (san1∆): 2.39 ± 0.072
protein stability index (ubr1∆): 1.78 ± 0.046

VGLKNYDPQRDKRFSGS [RPL1A]
protein stability index (doa10∆): 3.23 ± 0.082
protein stability index (pdr5∆): 3.48 ± 0.1
protein stability index (san1∆): 3 ± 0.096
protein stability index (ubr1∆): 3.25 ± 0.061

SADREIQRTLMELLTQM [RPT4]
protein stability index (doa10∆): 2.93 ± 0.12
protein stability index (pdr5∆): 3.16 ± 0.1
protein stability index (san1∆): 3.27 ± 0.087
protein stability index (ubr1∆): 3.02 ± 0.095

NNFIVERVQSDENKDDE [SRP68]
protein stability index (doa10∆): 3.52 ± 0.16
protein stability index (pdr5∆): 3.35 ± 0.1
protein stability index (san1∆): 2.77 ± 0.23
protein stability index (ubr1∆): 3.04 ± 0.098

FKGLETPLKARQREMAE [YLR018C/POM34]
protein stability index (doa10∆): 3.27 ± 0.1
protein stability index (pdr5∆): 3.29 ± 0.1
protein stability index (san1∆): 2.91 ± 0.088
protein stability index (ubr1∆): 3.41 ± 0.069

EILYYQIKTLPEQYSDI [AAR2]
protein stability index (doa10∆): 2.9 ± 0.081
protein stability index (pdr5∆): 3.14 ± 0.084
protein stability index (san1∆): 2.77 ± 0.067
protein stability index (ubr1∆): 2.91 ± 0.046

RNNSKSVLLKKLGSVRV [SRP72]
protein stability index (pdr5∆): 1.33 ± 0.11
protein stability index (ubr1∆): 1.69 ± 0.087

KYLIKYNVFRQHTSFQE [CSI1]
protein stability index (doa10∆): 1.24 ± 0.069
protein stability index (pdr5∆): 1.2 ± 0.046
protein stability index (san1∆): 1.13 ± 0.14
protein stability index (ubr1∆): 1.19 ± 0.058

DPNLELDQVGVPKSIAK [RPO21]
protein stability index (doa10∆): 3.48 ± 0.23
protein stability index (pdr5∆): 3.18 ± 0.14
protein stability index (san1∆): 2.44 ± 0.25
protein stability index (ubr1∆): 3.11 ± 0.16

GVFDPASYAKYLIDHIK [RPL22A]
protein stability index (doa10∆): 2.73 ± 0.25
protein stability index (san1∆): 3.35 ± 0.16

RTDATFIRVIGSELVQK [RPT1]
protein stability index (doa10∆): 3.2 ± 0.082
protein stability index (pdr5∆): 3.19 ± 0.057
protein stability index (san1∆): 3.04 ± 0.072
protein stability index (ubr1∆): 2.98 ± 0.051

PMTVKLVQLPKSAMDTF [POP3]
protein stability index (doa10∆): 2.15 ± 0.058
protein stability index (pdr5∆): 2.52 ± 0.062
protein stability index (san1∆): 2.81 ± 0.053
protein stability index (ubr1∆): 2.88 ± 0.053

VFVKKHHELIKVKHDSQ [SSN2]
protein stability index (doa10∆): 1.32 ± 0.07
protein stability index (pdr5∆): 1.29 ± 0.053
protein stability index (san1∆): 1.18 ± 0.095
protein stability index (ubr1∆): 1.35 ± 0.051

EQRHLKRELKRAQEEVK [RPT3]
protein stability index (doa10∆): 3.13 ± 0.077
protein stability index (pdr5∆): 3.37 ± 0.12
protein stability index (san1∆): 2.95 ± 0.089
protein stability index (ubr1∆): 3.17 ± 0.078

SNVFGSNNSTTNTFGSN [YJL041W/NSP1]
protein stability index (doa10∆): 3.08 ± 0.063
protein stability index (pdr5∆): 3.44 ± 0.076
protein stability index (san1∆): 3.22 ± 0.043
protein stability index (ubr1∆): 3.47 ± 0.054

PQYINYSSIPSLQDSII [SSN2]
protein stability index (doa10∆): 2.97 ± 0.13
protein stability index (pdr5∆): 2.79 ± 0.12
protein stability index (san1∆): 2.9 ± 0.21
protein stability index (ubr1∆): 3.16 ± 0.086

NNSTGIANDNVITPHFI [SWI1]
protein stability index (doa10∆): 2.69 ± 0.041
protein stability index (pdr5∆): 2.95 ± 0.042
protein stability index (san1∆): 2.86 ± 0.031
protein stability index (ubr1∆): 2.9 ± 0.033

ELYEVDVLKVNTLVRPN [RPL25]
protein stability index (doa10∆): 2.52 ± 0.095
protein stability index (pdr5∆): 2.67 ± 0.099
protein stability index (san1∆): 2.72 ± 0.12
protein stability index (ubr1∆): 2.87 ± 0.088

MTLLTDSLRKLYVDSES [MTW1]
protein stability index (doa10∆): 1.45 ± 0.078
protein stability index (pdr5∆): 1.79 ± 0.11
protein stability index (san1∆): 1.65 ± 0.11
protein stability index (ubr1∆): 1.59 ± 0.077

YDSRSGTHNMYKEIRDV [RPL20A]
protein stability index (doa10∆): 3.11 ± 0.069
protein stability index (pdr5∆): 3.06 ± 0.064
protein stability index (san1∆): 3.16 ± 0.043
protein stability index (ubr1∆): 3.18 ± 0.056

IKSKADAWVSAAHYNRE [PRP8]
protein stability index (doa10∆): 1.79 ± 0.078
protein stability index (pdr5∆): 1.48 ± 0.065
protein stability index (san1∆): 2.6 ± 0.06
protein stability index (ubr1∆): 1.7 ± 0.11

KNPLFSYVEPVLVASAK [RPL31A]
protein stability index (doa10∆): 2.95 ± 0.075
protein stability index (pdr5∆): 2.57 ± 0.064
protein stability index (san1∆): 2.49 ± 0.066
protein stability index (ubr1∆): 2.76 ± 0.05

VDSRATAGNWVASQTVK [PRE2]
protein stability index (doa10∆): 3.17 ± 0.12
protein stability index (pdr5∆): 3.4 ± 0.079
protein stability index (san1∆): 3.13 ± 0.078
protein stability index (ubr1∆): 3.26 ± 0.066

INLRKVAEKMNGCSGAD [RPT6]
protein stability index (doa10∆): 2.45 ± 0.15
protein stability index (pdr5∆): 2.25 ± 0.28
protein stability index (san1∆): 2.38 ± 0.13
protein stability index (ubr1∆): 3.07 ± 0.29
